Entries after “also recorded” stand apart in the source; their conditions may differ.
Assays:
[1] = biological target: human adrenocorticotropic hormone(1-24) fusion protein PAC
[2] = biological target: human calcitonin precursor fusion protein PCT

Sequence of fusion protein PA3′ (chain, as listed by the source): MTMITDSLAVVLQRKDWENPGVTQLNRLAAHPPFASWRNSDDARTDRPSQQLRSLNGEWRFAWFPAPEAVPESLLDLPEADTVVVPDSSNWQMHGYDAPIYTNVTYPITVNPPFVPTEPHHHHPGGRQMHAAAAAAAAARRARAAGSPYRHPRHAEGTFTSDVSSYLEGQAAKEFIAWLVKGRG
Sequence of fusion protein PA1′A3′ (chain, as listed by the source): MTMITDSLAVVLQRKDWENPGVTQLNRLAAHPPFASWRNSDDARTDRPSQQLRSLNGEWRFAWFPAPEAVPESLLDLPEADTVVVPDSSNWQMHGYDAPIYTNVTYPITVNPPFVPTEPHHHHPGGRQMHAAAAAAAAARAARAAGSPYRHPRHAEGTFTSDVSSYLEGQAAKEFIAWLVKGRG
Sequence of fusion protein PA3D23′ (chain, as listed by the source): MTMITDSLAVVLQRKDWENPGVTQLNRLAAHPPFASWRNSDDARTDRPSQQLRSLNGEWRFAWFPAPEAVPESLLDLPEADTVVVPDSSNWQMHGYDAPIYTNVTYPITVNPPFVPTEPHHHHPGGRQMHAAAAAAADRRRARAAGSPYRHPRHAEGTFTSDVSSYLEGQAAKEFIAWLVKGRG
Sequence of fusion protein PMT (chain, as listed by the source): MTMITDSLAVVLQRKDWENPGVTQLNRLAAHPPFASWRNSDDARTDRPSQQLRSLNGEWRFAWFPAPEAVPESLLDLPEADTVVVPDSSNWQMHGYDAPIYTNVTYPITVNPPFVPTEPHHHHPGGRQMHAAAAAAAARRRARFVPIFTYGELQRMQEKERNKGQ
Sequence of fusion protein PA323′ (chain, as listed by the source): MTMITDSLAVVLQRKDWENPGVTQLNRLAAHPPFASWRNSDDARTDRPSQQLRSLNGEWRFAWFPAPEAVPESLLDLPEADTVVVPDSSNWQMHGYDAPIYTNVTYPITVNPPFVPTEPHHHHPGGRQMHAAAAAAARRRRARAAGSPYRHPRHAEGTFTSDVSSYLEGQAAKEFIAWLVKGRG
Sequence of fusion protein PA5D23′ (chain, as listed by the source): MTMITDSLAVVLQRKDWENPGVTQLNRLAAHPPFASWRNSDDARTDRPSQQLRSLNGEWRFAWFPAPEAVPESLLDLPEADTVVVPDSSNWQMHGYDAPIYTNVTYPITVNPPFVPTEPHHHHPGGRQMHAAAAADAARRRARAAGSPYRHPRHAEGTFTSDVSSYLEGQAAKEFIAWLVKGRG
Sequence of fusion protein PA4D23′ (chain, as listed by the source): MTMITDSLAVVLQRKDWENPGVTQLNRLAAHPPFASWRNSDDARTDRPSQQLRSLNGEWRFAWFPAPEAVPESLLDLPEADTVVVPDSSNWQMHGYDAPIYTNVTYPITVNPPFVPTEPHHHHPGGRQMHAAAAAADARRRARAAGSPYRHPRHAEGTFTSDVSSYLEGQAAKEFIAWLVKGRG
Sequence of fusion protein PA8 (chain, as listed by the source): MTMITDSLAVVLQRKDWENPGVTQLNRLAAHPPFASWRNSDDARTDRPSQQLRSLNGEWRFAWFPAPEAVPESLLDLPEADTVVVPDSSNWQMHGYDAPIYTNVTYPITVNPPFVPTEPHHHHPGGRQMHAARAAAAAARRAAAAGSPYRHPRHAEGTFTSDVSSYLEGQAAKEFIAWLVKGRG
Sequence of fusion protein PA5 (chain, as listed by the source): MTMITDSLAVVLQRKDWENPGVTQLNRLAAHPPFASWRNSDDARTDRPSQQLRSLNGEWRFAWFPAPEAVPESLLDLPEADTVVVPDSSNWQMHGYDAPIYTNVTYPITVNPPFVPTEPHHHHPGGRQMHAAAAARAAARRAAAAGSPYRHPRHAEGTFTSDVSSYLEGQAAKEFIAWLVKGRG
Sequence of fusion protein PA5′ (chain, as listed by the source): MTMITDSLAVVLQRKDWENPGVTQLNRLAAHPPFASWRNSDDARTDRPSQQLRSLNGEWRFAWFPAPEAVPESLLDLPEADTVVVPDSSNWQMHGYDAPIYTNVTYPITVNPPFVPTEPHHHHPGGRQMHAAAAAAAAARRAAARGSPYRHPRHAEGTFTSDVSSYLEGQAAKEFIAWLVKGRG
Sequence of fusion protein PA2′3′ (chain, as listed by the source): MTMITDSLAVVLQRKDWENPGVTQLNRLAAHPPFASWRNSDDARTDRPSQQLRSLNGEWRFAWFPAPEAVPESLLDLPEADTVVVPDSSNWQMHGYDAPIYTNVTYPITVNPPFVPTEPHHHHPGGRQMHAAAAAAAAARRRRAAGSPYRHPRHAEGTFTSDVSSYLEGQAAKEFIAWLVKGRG
Sequence of fusion protein PA10 (chain, as listed by the source): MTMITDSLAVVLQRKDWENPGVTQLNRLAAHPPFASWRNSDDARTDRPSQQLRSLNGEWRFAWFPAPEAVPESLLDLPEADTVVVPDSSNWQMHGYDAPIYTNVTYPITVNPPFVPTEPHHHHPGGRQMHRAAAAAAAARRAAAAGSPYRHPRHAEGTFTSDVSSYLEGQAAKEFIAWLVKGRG
Sequence of fusion protein PA7 (chain, as listed by the source): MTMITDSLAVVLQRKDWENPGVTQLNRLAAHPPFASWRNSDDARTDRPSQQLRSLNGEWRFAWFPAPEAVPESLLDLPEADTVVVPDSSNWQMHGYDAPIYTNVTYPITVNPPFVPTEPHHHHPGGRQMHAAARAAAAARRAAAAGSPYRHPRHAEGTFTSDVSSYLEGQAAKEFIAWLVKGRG
Sequence of fusion protein PA3 (chain, as listed by the source): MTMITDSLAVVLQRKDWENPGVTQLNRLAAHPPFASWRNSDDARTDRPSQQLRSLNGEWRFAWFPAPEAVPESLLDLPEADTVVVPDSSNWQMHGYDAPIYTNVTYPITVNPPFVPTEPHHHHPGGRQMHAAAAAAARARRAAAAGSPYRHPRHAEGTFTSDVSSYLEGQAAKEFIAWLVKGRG
Sequence of fusion protein PA1A3′ (chain, as listed by the source): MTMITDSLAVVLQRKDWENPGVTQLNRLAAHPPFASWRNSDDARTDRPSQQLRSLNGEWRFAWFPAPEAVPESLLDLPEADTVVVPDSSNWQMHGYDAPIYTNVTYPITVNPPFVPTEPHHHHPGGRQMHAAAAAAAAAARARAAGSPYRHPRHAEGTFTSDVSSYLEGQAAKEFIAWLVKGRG
Sequence of fusion protein PA9 (chain, as listed by the source): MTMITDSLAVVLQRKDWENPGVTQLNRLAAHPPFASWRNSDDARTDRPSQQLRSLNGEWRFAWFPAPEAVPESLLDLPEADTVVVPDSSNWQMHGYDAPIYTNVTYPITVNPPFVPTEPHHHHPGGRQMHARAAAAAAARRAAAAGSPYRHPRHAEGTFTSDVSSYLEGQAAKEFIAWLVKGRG
Sequence of fusion protein PA2 (chain, as listed by the source): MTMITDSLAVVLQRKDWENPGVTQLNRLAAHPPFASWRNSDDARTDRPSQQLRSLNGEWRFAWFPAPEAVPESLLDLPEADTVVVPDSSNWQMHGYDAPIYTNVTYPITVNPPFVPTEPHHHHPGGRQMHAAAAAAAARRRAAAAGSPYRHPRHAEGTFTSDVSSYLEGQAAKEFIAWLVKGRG
Sequence of fusion protein PA4′ (chain, as listed by the source): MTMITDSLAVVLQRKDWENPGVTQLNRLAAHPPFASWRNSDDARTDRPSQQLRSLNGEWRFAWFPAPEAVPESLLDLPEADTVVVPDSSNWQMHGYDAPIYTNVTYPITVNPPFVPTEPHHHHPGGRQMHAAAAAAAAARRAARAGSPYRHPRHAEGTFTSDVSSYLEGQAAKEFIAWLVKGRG
Sequence of fusion protein PA23′ (chain, as listed by the source): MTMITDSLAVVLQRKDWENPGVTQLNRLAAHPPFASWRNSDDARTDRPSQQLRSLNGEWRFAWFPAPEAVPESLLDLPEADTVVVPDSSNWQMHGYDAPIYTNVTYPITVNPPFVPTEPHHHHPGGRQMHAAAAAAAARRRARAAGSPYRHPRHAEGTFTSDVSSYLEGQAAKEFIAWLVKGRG
Sequence of fusion protein PA2′ (chain, as listed by the source): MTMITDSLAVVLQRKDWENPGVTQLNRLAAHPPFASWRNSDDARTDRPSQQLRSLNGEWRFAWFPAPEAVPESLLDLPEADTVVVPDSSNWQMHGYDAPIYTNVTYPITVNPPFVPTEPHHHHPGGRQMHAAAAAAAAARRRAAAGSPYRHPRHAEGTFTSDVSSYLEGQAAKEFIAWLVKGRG
Sequence of fusion protein PA6 (chain, as listed by the source): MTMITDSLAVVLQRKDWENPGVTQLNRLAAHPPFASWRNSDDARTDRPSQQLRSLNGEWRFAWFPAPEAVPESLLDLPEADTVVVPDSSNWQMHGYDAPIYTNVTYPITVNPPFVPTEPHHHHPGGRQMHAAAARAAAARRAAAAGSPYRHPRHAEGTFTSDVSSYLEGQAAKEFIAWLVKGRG
Sequence of fusion protein PA4 (chain, as listed by the source): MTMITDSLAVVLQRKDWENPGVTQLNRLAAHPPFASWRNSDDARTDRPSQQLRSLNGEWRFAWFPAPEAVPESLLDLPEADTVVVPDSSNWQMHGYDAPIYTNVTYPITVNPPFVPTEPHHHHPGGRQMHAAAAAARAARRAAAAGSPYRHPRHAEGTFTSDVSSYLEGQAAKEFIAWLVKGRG
Sequence of fusion protein PRG (chain, as listed by the source): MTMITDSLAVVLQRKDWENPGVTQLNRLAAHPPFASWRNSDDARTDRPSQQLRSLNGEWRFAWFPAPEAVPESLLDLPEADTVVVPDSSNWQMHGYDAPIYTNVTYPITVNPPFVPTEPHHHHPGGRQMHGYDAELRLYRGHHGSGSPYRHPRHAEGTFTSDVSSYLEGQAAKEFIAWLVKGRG
Sequence of fusion protein PRN (chain, as listed by the source): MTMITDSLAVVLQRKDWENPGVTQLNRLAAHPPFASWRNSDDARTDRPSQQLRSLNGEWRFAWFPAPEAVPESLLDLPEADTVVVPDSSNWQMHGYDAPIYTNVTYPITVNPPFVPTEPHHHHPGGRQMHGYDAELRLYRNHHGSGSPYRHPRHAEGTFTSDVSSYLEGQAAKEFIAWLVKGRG
Sequence of fusion protein PRT (chain, as listed by the source): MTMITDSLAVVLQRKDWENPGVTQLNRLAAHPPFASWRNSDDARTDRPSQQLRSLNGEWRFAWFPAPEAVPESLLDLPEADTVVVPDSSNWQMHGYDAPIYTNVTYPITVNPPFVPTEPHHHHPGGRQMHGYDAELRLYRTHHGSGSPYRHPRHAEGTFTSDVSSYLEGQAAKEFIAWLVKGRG

B1: OmpT protease (wild-type, E. coli mature OmpT protease) (protein)
chain: STETLSFTPDNINADISLGTLSGKTKERVYLAEEGGRKVSQLDWKFNNAAIIKGAINWDLMPQISIGAAGWTTLGSRGGNMVDQDWMDSSNPGTWTDESRHPDTQLNYANEFDLNIKGWLLNEPNYRLGLMAGYQESRYSFTARGGSYIYSSEEGFRDDIGSFPNGERAIGYKQRFKMPYIGLTGSYRYEDFELGGTFKYSGWVESSDNDEHYDPGKRITYRSKVKDQNYYSVAVNAGYYVTPNAKVYVEGAWNRVTNKKGNTSLYDHNNNTSDYSKNGAGIENYNFITTAGLKYTF
- cleavage (SDS-PAGE) (fusion protein PRMT): no cleavage of PRMT was detected
- cleavage (HPLC, mass analysis) (fusion protein PA4D23′): the major cleavage site of PA5D23′, PA4D23′ and PA3D23′ is Arg^143-Ala^144
- cleavage at Arg^139-Arg^140 and Arg^140-Arg^141 (fusion protein PA4D23′): no cleavage was detected at Arg^139-Arg^140 and Arg^140-Arg^141 as was detected with PA23′
- cleavage efficiency at Arg^143-Ala^144 against Arg^140-Arg^141 of PA (fusion protein PA4D23′): low compared to PA23′, but twice the cleavage efficiency at Arg^140-Arg^141 of PA
- relative cleavage efficiency (fusion protein PRW): less than 3%
- cleavage (HPLC, mass analysis) (fusion protein PA7): All of the PAn proteins underwent cleavage by OmpT protease at the same site as PA
- cleavage efficiency against PA (fusion protein PA7): Increase in cleavage efficiency was seen for all of the PAn proteins except for PA2 and PA2′
- cleavage (HPLC, mass analysis) (fusion protein PA5): All of the PAn proteins underwent cleavage by OmpT protease at the same site as PA
- cleavage efficiency against PA (fusion protein PA5): Increase in cleavage efficiency was seen for all of the PAn proteins except for PA2 and PA2′
- cleavage (HPLC, mass analysis) (fusion protein PA6): All of the PAn proteins underwent cleavage by OmpT protease at the same site as PA
- cleavage efficiency against PA (fusion protein PA6): Increase in cleavage efficiency was seen for all of the PAn proteins except for PA2 and PA2′
- cleavage (HPLC, mass analysis) (fusion protein PA8): All of the PAn proteins underwent cleavage by OmpT protease at the same site as PA
- cleavage efficiency against PA (fusion protein PA8): Increase in cleavage efficiency was seen for all of the PAn proteins except for PA2 and PA2′
- cleavage (HPLC, mass analysis) (fusion protein PA323′): It was confirmed that PA23′, PA323′ and PA2′3′ are cleaved at Arg^143-Ala^144
- cleavage at Arg^140-Arg^141 against Arg^143-Ala^144 (fusion protein PA323′): at 59% the cleavage efficiency at Arg^143-Ala^144
- cleavage efficiency at Arg^143-Ala^144 against Arg^140-Arg^141 of PA (fusion protein PA323′): also 2.9 times the cleavage efficiency at Arg^140-Arg^141 of PA
- cleavage (HPLC, mass analysis) (fusion protein PA1′A3′): PA1A3′ and PA1′A3′ were both cleaved at Arg^143-Ala^144; also recorded: Cleavage was also confirmed at Arg^140-Ala^141 in PA1′A3′
- cleavage efficiency against PA (fusion protein PA1′A3′): all of the cleavage efficiencies were lower than the cleavage efficiency at Arg^140-Arg^141 of PA
- cleavage (HPLC, mass analysis) (fusion protein PA2′3′): It was confirmed that PA23′, PA323′ and PA2′3′ are cleaved at Arg^143-Ala^144
- cleavage efficiency at Arg^143-Ala^144 against Arg^140-Arg^141 of PA (fusion protein PA2′3′): low at 63% of the cleavage efficiency at Arg^140-Arg^141 of PA
- cleavage efficiency (reference) (fusion protein PA): the cleavage efficiency of the fusion protein PA is 100%
- cleavage (HPLC, mass analysis) (fusion protein PA1A3′): PA1A3′ and PA1′A3′ were both cleaved at Arg^143-Ala^144
- cleavage efficiency against PA (fusion protein PA1A3′): all of the cleavage efficiencies were lower than the cleavage efficiency at Arg^140-Arg^141 of PA
- relative cleavage efficiency (fusion protein PRD): less than 3%
- relative cleavage efficiency (fusion protein PRN): < 3%
- cleavage (HPLC, mass analysis) (fusion protein PA10): All of the PAn proteins underwent cleavage by OmpT protease at the same site as PA
- cleavage efficiency against PA (fusion protein PA10): Increase in cleavage efficiency was seen for all of the PAn proteins except for PA2 and PA2′
- cleavage (SDS-PAGE, HPLC) (fusion protein PMT): cleavage of the fusion protein PMT by OmpT protease was confirmed
- release of human motilin (cleavage at Arg^143-Phe^144) (fusion protein PMT): only a very slight amount of peptide cleavage fragment of Arg^143-Phe^144, i.e. human motilin, was detected by mass analysis
- relative cleavage efficiency: RAR-motilin (Arg^140-Arg^141) (fusion protein PMT; scale: relative): 23
- relative cleavage efficiency: RRAR-motilin (Arg^139-Arg^140) (fusion protein PMT; scale: relative): 100
- cleavage (HPLC, mass analysis) (fusion protein PA23′): It was confirmed that PA23′, PA323′ and PA2′3′ are cleaved at Arg^143-Ala^144
- cleavage efficiency at Arg^143-Ala^144 against Arg^140-Arg^141 of PA (fusion protein PA23′): 2.9 times the cleavage efficiency at Arg^140-Arg^141 of PA
- cleavage (HPLC, mass analysis) (fusion protein PA2′): All of the PAn proteins underwent cleavage by OmpT protease at the same site as PA, while PA2, PA2′ and PA3′ also underwent cleavage at other sites
- cleavage efficiency against PA (fusion protein PA2′): the cleavage efficiencies of PA2 and PA2′ were reduced to about ⅓
- relative cleavage efficiency (fusion protein PRS): 3.9%
- relative cleavage efficiency (fusion protein PRY): < 3%
- relative cleavage efficiency (fusion protein PRK): 88%
- relative cleavage efficiency (fusion protein PRM): < 3%
- cleavage (HPLC, mass analysis) [1]: The fusion protein PAC was cleaved at Arg^143-Ser^144 by wild-type OmpT protease to release human adrenocorticotropic hormone(1-24)
- relative cleavage efficiency (fusion protein PRC): 3.1%
- relative cleavage efficiency (fusion protein PRL): less than 3%
- relative cleavage efficiency (fusion protein PRF): < 3%
- cleavage (HPLC, mass analysis) (fusion protein PA4′): All of the PAn proteins underwent cleavage by OmpT protease at the same site as PA
- cleavage efficiency against PA (fusion protein PA4′): Increase in cleavage efficiency was seen for all of the PAn proteins except for PA2 and PA2′
- cleavage (HPLC, mass analysis) (fusion protein PA5D23′): the major cleavage site of PA5D23′, PA4D23′ and PA3D23′ is Arg^143-Ala^144
- cleavage at Arg^140-Arg^141 (fusion protein PA5D23′): cleavage was also observed at Arg^140-Arg^141
- cleavage efficiency at Arg^143-Ala^144 against Arg^140-Arg^141 of PA (fusion protein PA5D23′): 1.9 times the cleavage efficiency at Arg^140-Arg^141 of PA
- relative cleavage efficiency (fusion protein PRV): 3.5%
- relative cleavage efficiency (fusion protein PRH): less than 3%
- cleavage (HPLC, mass analysis) (fusion protein PA3): All of the PAn proteins underwent cleavage by OmpT protease at the same site as PA
- cleavage efficiency against PA (fusion protein PA3): Increase in cleavage efficiency was seen for all of the PAn proteins except for PA2 and PA2′
- cleavage (HPLC, mass analysis) (fusion protein PA4): All of the PAn proteins underwent cleavage by OmpT protease at the same site as PA
- cleavage efficiency against PA (fusion protein PA4): PA4 had the highest cleavage efficiency of about 5 times that of PA
- cleavage (HPLC, mass analysis) (fusion protein PA3D23′): the major cleavage site of PA5D23′, PA4D23′ and PA3D23′ is Arg^143-Ala^144
- cleavage at Arg^139-Arg^140 and Arg^140-Arg^141 (fusion protein PA3D23′): no cleavage was detected at Arg^139-Arg^140 and Arg^140-Arg^141, similar to PA4D23′
- cleavage efficiency at Arg^143-Ala^144 against Arg^140-Arg^141 of PA (fusion protein PA3D23′): about the same as the cleavage efficiency at Arg^140-Arg^141 of PA, and lower than PA4D23′
- relative cleavage efficiency (fusion protein PRE): less than 3%
- relative cleavage efficiency (fusion protein PRI): < 3%
- relative cleavage efficiency (fusion protein PRR): 100%
- cleavage (HPLC, mass analysis) (fusion protein PA2): All of the PAn proteins underwent cleavage by OmpT protease at the same site as PA, while PA2, PA2′ and PA3′ also underwent cleavage at other sites
- cleavage efficiency against PA (fusion protein PA2): the cleavage efficiencies of PA2 and PA2′ were reduced to about ⅓
- relative cleavage efficiency (fusion protein PRG): less than 3%
- relative cleavage efficiency (fusion protein PRQ): less than 3%
- cleavage (HPLC, mass analysis) (fusion protein PA3′): All of the PAn proteins underwent cleavage by OmpT protease at the same site as PA, while PA2, PA2′ and PA3′ also underwent cleavage at other sites
- cleavage efficiency against PA (fusion protein PA3′): Increase in cleavage efficiency was seen for all of the PAn proteins except for PA2 and PA2′
- cleavage efficiency at Arg^140-Arg^141 (PA = 100%) (fusion protein PA3′): cleavage efficiencies: 220%, 73%
- cleavage efficiency at Arg^143-Ala^144 (PA = 100%) (fusion protein PA3′): cleavage efficiencies: 220%, 73%
- relative cleavage efficiency (fusion protein PRP): less than 3%
- cleavage (HPLC, mass analysis) (fusion protein PA9): All of the PAn proteins underwent cleavage by OmpT protease at the same site as PA
- cleavage efficiency against PA (fusion protein PA9): Increase in cleavage efficiency was seen for all of the PAn proteins except for PA2 and PA2′
- relative cleavage efficiency (fusion protein PRA): 5.4%
- cleavage (HPLC, mass analysis) [2]: The fusion protein PCT was cleaved at Arg^139-Arg^140 and Arg^140-Arg^141 by wild-type OmpT protease, releasing RRAR-CT and RAR-CT
- relative cleavage efficiency (fusion protein PRT): < 3%
- cleavage (HPLC, mass analysis) (fusion protein PA5′): All of the PAn proteins underwent cleavage by OmpT protease at the same site as PA
- cleavage efficiency against PA (fusion protein PA5′): Increase in cleavage efficiency was seen for all of the PAn proteins except for PA2 and PA2′

Reference: US20070077617
